Our source for the EC50 values is patent publication US20250242041A1 (Seagen, published 2025).

For experiment [1], the target named is T1, cyno αvβ6 on 293F:cynoβ6 cells (human;Macaca fascicularis, UniProt P06756 31-1048; A0A2K5TZ36 22-787).
T1 chain 1: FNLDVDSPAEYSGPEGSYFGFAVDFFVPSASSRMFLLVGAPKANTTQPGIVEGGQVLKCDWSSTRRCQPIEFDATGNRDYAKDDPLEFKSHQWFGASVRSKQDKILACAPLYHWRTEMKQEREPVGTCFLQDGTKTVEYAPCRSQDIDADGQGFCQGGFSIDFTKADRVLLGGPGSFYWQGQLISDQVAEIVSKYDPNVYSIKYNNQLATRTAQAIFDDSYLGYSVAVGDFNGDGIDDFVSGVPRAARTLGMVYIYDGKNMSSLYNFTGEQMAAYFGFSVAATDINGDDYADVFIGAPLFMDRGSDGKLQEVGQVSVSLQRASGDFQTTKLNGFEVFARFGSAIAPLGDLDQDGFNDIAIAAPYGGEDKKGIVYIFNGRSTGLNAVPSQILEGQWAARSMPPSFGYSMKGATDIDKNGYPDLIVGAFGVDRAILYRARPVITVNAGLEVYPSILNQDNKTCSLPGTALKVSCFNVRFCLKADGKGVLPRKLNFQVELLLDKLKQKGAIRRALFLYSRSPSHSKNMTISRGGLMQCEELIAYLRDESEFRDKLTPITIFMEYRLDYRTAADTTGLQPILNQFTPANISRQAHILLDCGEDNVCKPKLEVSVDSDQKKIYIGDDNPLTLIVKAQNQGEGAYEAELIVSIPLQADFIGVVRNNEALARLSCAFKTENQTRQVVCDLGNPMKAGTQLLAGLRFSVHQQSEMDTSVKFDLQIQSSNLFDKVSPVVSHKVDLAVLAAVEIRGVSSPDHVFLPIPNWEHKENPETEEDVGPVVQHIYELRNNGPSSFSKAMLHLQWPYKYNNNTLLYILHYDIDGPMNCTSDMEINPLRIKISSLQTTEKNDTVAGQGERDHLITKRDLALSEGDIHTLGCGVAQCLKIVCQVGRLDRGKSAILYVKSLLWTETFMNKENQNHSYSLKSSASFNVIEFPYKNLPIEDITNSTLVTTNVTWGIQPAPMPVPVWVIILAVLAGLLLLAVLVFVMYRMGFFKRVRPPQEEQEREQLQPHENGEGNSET
T1 chain 2: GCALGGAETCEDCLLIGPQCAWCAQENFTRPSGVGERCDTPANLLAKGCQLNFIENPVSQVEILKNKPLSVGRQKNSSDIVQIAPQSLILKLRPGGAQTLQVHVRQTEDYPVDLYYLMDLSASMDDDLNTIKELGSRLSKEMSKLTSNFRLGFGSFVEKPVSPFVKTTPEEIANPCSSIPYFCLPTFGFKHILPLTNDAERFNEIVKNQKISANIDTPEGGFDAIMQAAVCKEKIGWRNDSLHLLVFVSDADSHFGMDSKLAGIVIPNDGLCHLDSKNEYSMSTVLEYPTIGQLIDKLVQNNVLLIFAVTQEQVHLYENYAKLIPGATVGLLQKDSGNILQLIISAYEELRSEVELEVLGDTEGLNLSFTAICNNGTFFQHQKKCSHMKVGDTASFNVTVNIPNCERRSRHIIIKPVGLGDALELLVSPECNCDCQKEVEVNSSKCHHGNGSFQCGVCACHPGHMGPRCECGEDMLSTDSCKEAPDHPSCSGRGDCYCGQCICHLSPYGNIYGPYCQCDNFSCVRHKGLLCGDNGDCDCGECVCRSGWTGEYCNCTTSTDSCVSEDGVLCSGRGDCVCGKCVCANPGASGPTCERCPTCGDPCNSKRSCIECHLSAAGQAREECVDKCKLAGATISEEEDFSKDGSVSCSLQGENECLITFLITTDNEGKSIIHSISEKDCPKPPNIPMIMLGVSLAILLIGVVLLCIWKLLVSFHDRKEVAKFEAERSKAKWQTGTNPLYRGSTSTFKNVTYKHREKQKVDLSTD
The experiment is described as follows: saturation binding on 293F cells; AF647-labeled.

The target in experiment [2] is T2, human αvβ6 on 293F:huβ6 cells (human, UniProt P06756 31-1048; P18564 22-788).
T2 chain 1: T1 chain 1
T2 chain 2: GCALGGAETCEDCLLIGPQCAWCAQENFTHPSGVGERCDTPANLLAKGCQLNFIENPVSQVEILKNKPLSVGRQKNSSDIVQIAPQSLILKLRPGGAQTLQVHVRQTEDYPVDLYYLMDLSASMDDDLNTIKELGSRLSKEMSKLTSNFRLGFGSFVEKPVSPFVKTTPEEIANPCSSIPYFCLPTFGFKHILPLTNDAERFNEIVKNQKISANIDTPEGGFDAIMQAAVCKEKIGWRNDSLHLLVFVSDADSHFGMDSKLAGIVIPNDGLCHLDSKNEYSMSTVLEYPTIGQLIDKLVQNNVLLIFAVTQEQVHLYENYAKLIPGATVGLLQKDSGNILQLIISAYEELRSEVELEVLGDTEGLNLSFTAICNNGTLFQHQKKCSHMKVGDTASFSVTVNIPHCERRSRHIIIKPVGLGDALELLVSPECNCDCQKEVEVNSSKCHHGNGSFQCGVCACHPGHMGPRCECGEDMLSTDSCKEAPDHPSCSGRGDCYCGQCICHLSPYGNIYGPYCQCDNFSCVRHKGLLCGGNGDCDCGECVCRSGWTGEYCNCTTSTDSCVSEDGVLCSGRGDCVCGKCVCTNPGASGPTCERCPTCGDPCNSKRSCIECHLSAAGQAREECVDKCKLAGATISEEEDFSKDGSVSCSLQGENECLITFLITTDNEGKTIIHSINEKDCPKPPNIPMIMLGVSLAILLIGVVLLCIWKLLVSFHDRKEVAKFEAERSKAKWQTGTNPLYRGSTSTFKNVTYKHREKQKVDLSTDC
As to the kind of experiment: saturation binding on 293F cells; AF647-labeled.

B1: h2A2 HCLG humanized antibody (antibody, human IgG1, kappa, V domains shown)
VH: QFQLVQSGAEVKKPGASVKVSCKASGYSFTDYNVNWVRQAPGQGLEWIGVINPKYGTTRYNQKFKGRATLTVDKSTSTAYMELSSLRSEDTAVYYCTRGLNAWDYWGQGTLVTVSS
VL: DIQMTQSPSSLSASVGDRVTITCGASENIYGALNWYQQKPGKAPKLLIYGATNLEDGVPSRFSGSGSGRDYTFTISSLQPEDIATYYCQNVLTTPYTFGQGTKLEIKR
notes: Labelled with AlexaFluor-647 in the saturation assay; also called humanized 2A2 HCLG
B1: the figures for the 50% effective concentration (EC50) in experiment [1] and in experiment [2] were 0.2 nM and 0.3 nM, respectively.

Broadly, the EC50 is the concentration giving half of the maximal effect. Low readings indicate a more potent agent, high ones a less potent agent.
